The record followed here is patent US20250145684A1 (IMMATICS BIOTECHNOLOGIES, published 2025).

The target in this assay is T1, HLA-B*08:01 (human).
T1 construct: MHC monomer first loaded with a UV-sensitive peptide that is cleaved by UV light and exchanged for the test peptide
Nature of the assay: UV peptide exchange ELISA. The source says:
Candidate peptides for T cell based therapies according to the present invention were further tested for their MHC binding capacity (affinity). The individual peptide-MHC complexes were produced by UV-ligand exchange, where a UV-sensitive peptide is cleaved upon UV-irradiation and exchanged with the peptide of interest as analyzed. Only peptide candidates that can effectively bind and stabilize the peptide-receptive MHC molecules prevent dissociation of the MHC complexes. To determine the yield of the exchange reaction, an ELISA was performed based on the detection of the light chain (β2m) of stabilized MHC complexes. The assay was performed as generally described in Rodenko et al. (Rodenko et al., 2006).
96 well MAXISorp plates (NUNC) were coated over night with 2 ug/ml streptavidin in PBS at room temperature, washed 4× and blocked for 1 h at 37° C. in 2% BSA containing blocking buffer. Refolded HLA-A*02:01/MLA-001 monomers served as standards, covering the range of 15-500 ng/ml. Peptide-MHC monomers of the UV-exchange reaction were diluted 100-fold in blocking buffer. Samples were incubated for 1 h at 37° C., washed four times, incubated with 2 ug/ml HRP conjugated anti-β2m for 1 h at 37° C., washed again and detected with TMB solution that is stopped with […]. Absorption was measured at 450 nm. Candidate peptides that show a high exchange yield (preferably higher than 50%, most preferred higher than 75%) are generally preferred for a generation and production of antibodies or fragments thereof, and/or T cell receptors or fragments thereof, as they show sufficient avidity to the MHC molecules and prevent dissociation of the MHC complexes.
In general terms: ELISA stands for enzyme-linked immunosorbent assay.
With DVSARKLRV [DVSARKLRV (SEQ ID NO: 223)], the peptide exchange yield lay in the range of 20 to 50%.

EARPPSPAV [EARPPSPAV (SEQ ID NO: 216)] had a peptide exchange yield of 20 to 50%.

In the case of EVYQKIIL [EVYQKIIL (SEQ ID NO: 38)], the peptide exchange yield fell in the range of 50 to 75%.

The molecule MPKRAHWGA [MPKRAHWGA (SEQ ID NO: 225)] yielded a peptide exchange yield of 50 to 75%.

In the case of SPNSLVTIL [SPNSLVTIL (SEQ ID NO: 235)], the peptide exchange yield lay within 50 to 75%.

SEVNKHETAL [SEVNKHETAL (SEQ ID NO: 248)] showed a peptide exchange yield of 20 to 50%.

DNHPRLVTL [DNHPRLVTL (SEQ ID NO: 218)] yielded a peptide exchange yield of 50 to 75%.

NPLIEIISI [NPLIEIISI (SEQ ID NO: 215)] returned a peptide exchange yield of 20 to 50%.

Molecule DIYEVAVSL [DIYEVAVSL (SEQ ID NO: 226)] had a peptide exchange yield of 50 to 75%.

In turn, DLQKKAQAL [DLQKKAQAL (SEQ ID NO: 30)] returned a peptide exchange yield of 20 to 50%.

KVIDRKVEL [KVIDRKVEL (SEQ ID NO: 240)] returned a peptide exchange yield of 20 to 50%.

In the case of TPEPSVHAL [TPEPSVHAL (SEQ ID NO: 247)], the peptide exchange yield lay in the range of 20 to 50%.

On to NAYEAPSI [NAYEAPSI (SEQ ID NO: 241)], for which the peptide exchange yield is 20 to 50%.

Molecule QQIDRVVEV [QQIDRVVEV (SEQ ID NO: 249)] showed a peptide exchange yield of 20 to 50%.

Molecule DLVLKRCL [DLVLKRCL (SEQ ID NO: 24)] showed a peptide exchange yield not below 75%.

Turning to IYRKKYIL [IYRKKYIL (SEQ ID NO: 34)], the peptide exchange yield was 20 to 50%.

For ELFQRPVL [ELFQRPVL (SEQ ID NO: 35)], the peptide exchange yield is 20 to 50%.

The molecule VFRVGISF [VFRVGISF (SEQ ID NO: 234)] came in with a peptide exchange yield of 20 to 50%.

With QVMPKTGL [QVMPKTGL (SEQ ID NO: 4)], the peptide exchange yield lay within 20 to 50%.

The molecule STLKKSLEI [STLKKSLEI (SEQ ID NO: 236)] had a peptide exchange yield of 20 to 50%.

The molecule NPYLKLVL [NPYLKLVL (SEQ ID NO: 32)] returned a peptide exchange yield of 20 to 50%.

For the molecule DVYFHHVL [DVYFHHVL (SEQ ID NO: 230)], the peptide exchange yield is 20 to 50%.

Molecule VLRRKTLL [VLRRKTLL (SEQ ID NO: 42)] registered a peptide exchange yield of 20 to 50%.

The molecule EEYKFPSL [EEYKFPSL (SEQ ID NO: 212)] registered a peptide exchange yield of 20 to 50%.

AARAPPQAL [AARAPPQAL (SEQ ID NO: 250)] registered a peptide exchange yield of 20 to 50%.

As to HLHPKGREL [HLHPKGREL (SEQ ID NO: 25)], the peptide exchange yield was in the range of 20 to 50%.

For IPLAIARL [IPLAIARL (SEQ ID NO: 238)], the peptide exchange yield fell in the range of 50 to 75%.

For the molecule GPRGPSSGHPL [GPRGPSSGHPL (SEQ ID NO: 245)], the peptide exchange yield is 20 to 50%.

For DARCKLAEL [DARCKLAEL (SEQ ID NO: 26)], the peptide exchange yield was in the range of 20 to 50%.

In the case of FPSLFINQF [FPSLFINQF (SEQ ID NO: 213)], the peptide exchange yield was 20 to 50%.

AQKAELIAL [AQKAELIAL (SEQ ID NO: 222)]: the peptide exchange yield is 20 to 50%.

Regarding VRNPKILIL [VRNPKILIL (SEQ ID NO: 219)], the peptide exchange yield was 20 to 50%.

In the case of DIKKTNESL [DIKKTNESL (SEQ ID NO: 23)], the peptide exchange yield lay in the range of 20 to 50%.

In turn, DAAAFFKSV [DAAAFFKSV (SEQ ID NO: 251)] displayed a peptide exchange yield of 20 to 50%.

In turn, DPKSRLKSL [DPKSRLKSL (SEQ ID NO: 28)] returned a peptide exchange yield of 20 to 50%.

The molecule LPLDSRYVTL [LPLDSRYVTL (SEQ ID NO: 237)] had a peptide exchange yield of 50 to 75%.

EGVPPGTVL [EGVPPGTVL (SEQ ID NO: 243)]: the peptide exchange yield lay within 50 to 75%.

Consider ELFLHPVL [ELFLHPVL (SEQ ID NO: 29)], for which the peptide exchange yield lay within 20 to 50%.

HALPPYITVL [HALPPYITVL (SEQ ID NO: 244)] showed a peptide exchange yield of 20 to 50%.

Turning to SLKEELLSL [SLKEELLSL (SEQ ID NO: 221)], the peptide exchange yield is 50 to 75%.

In turn, EVRLKPIL [EVRLKPIL (SEQ ID NO: 22)] returned a peptide exchange yield of 20 to 50%.

Consider SRFPGMSVL [SRFPGMSVL (SEQ ID NO: 227)], for which the peptide exchange yield is 20 to 50%.

For LAVRHLSL [LAVRHLSL (SEQ ID NO: 220)], the peptide exchange yield fell in the range of 20 to 50%.

As for KPQSLQLVL [KPQSLQLVL (SEQ ID NO: 242)], the peptide exchange yield lay within 20 to 50%.

Molecule SPRVKWTF [SPRVKWTF (SEQ ID NO: 31)] showed a peptide exchange yield of 20 to 50%.

The molecule SEPVMRVTL [SEPVMRVTL (SEQ ID NO: 239)] had a peptide exchange yield of 20 to 50%.

In the case of RLLQKSKEL [RLLQKSKEL (SEQ ID NO: 246)], the peptide exchange yield lay within 20 to 50%.

DAKSKIEQI [DAKSKIEQI (SEQ ID NO: 39)] had a peptide exchange yield of 20 to 50%.

For KLYIHRVTL [KLYIHRVTL (SEQ ID NO: 232)], the peptide exchange yield was in the range of 20 to 50%.

As to ESMLKTTL [ESMLKTTL (SEQ ID NO: 40)], the peptide exchange yield lay in the range of 20 to 50%.

RGALRTLSL [RGALRTLSL (SEQ ID NO: 41)] returned a peptide exchange yield of 20 to 50%.

Molecule SIQSRYISM [SIQSRYISM (SEQ ID NO: 3)] returned a peptide exchange yield of 50 to 75%.

For the molecule LPYPPQKVV [LPYPPQKVV (SEQ ID NO: 224)], the peptide exchange yield was 20 to 50%.

For the molecule TLRAYVLAL [TLRAYVLAL (SEQ ID NO: 228)], the peptide exchange yield lay within 50 to 75%.

Molecule DAPRHRLL [DAPRHRLL (SEQ ID NO: 214)] yielded a peptide exchange yield of 20 to 50%.

In turn, EAFSRASL [EAFSRASL (SEQ ID NO: 37)] gave a peptide exchange yield of 20 to 50%.

DTHTNTYYL [DTHTNTYYL (SEQ ID NO: 229)] returned a peptide exchange yield of 20 to 50%.

GEKLLRPSL [GEKLLRPSL (SEQ ID NO: 231)] registered a peptide exchange yield of 20 to 50%.

As to IVKIKVQEL [IVKIKVQEL (SEQ ID NO: 36)], the peptide exchange yield is 20 to 50%.

Consider WIGLRNLDL [WIGLRNLDL (SEQ ID NO: 33)], for which the peptide exchange yield was in the range of 50 to 75%.

For DVKLVFVM [DVKLVFVM (SEQ ID NO: 233)], the peptide exchange yield was in the range of 20 to 50%.

Molecule ETIKGHSVRL [ETIKGHSVRL (SEQ ID NO: 217)] displayed a peptide exchange yield of 20 to 50%.
